For experiment [1], the target named is T1, human NT5E expressed on MDA-MB-231 cells (human, UniProt P21589 27-549).
T1 construct: whole, on cells; also called NT5E-expressing MDA-MB-231 cells; CD73
T1 sequence (looked up): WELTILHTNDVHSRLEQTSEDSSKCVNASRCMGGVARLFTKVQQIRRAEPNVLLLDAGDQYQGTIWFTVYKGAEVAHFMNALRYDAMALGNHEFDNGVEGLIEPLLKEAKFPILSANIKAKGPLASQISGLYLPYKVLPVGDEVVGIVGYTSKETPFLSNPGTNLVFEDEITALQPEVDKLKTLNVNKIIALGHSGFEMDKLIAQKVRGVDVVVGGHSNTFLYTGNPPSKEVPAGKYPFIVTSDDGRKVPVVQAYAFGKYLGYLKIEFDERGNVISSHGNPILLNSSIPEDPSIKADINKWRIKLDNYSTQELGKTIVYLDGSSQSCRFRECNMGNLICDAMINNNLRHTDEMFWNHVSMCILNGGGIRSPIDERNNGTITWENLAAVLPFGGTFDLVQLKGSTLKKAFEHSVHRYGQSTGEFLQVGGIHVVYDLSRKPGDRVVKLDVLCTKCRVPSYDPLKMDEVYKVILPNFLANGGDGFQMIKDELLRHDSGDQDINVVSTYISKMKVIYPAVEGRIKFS
As to the kind of experiment: flow cytometry on MDA-MB-231 cells, 1 mM ATP. As for the experimental part: Flow cytometry analysis of antibodies binding to human NT5E expressed on MDA-MB-231 cells in ATP-free condition (black) or in 1 mM ATP (red). Top panel: (left) 1780 Fab and (right) 1780 IgG titrations. […] Binding was measured at the indicated range of antibody concentrations and is expressed as mean±st. dev of median fluorescence intensity (MFI) of 1-2 replicates. Data were analyzed using OriginLab, and EC₅₀ values are shown next to the fitted curves.
Human MDA-MB-231 cells and murine 4T1 cells were grown to 90% confluency, detached with 5 mM EDTA for 15 min at 37° C. and then resuspended in 37° C. lx PBS (#10010031, Gibco) supplemented with 1% FBS and 1OpM ZnCl2. Separate working buffers (WB) of PBS and 1% FBS with or without fixed nucleotide concentrations were used throughout all washing steps to maintain constant condition. In 96-well plates (#3799, Costar), 0.2×10⁶ cells were added per well. The plates were spun at 500×g for 5 min and the supernatant was removed. Anti-NT5E antibodies were diluted to the desired concentration in 100 μL WB, added to the cells and the plates were incubated for 20 min at 37° C. Plates were spun and cells were washed twice with WB then spun a second time. Cells were stained with 100 μL of secondary antibody (Alexa Fluor 647 AffiniPure Goat Anti-Human IgG, F(ab′)2 fragment specific, #109-605-006, Jackson, 1:200) dilution and plates were incubated for 20 min at 37° C. Cells were washed twice with WB then fixed on ice with WB supplemented with 0.5% PFA. Fixing solution was removed by centrifugation and cells were resuspended in cold 1× PBS. Samples were analyzed by flow cytometry using CytoFLEX (Beckman Coulter) and mean fluorescence intensity (MFI) data was extracted using FlowJo software. Resulting binding data was plotted using OriginLab.
For orientation: Flow cytometry measures light scatter and fluorescence of single cells or particles in a stream.

Experiment [2] has as its target T2, Full-length murine NT5E (recombinant) (murine, UniProt Q61503 29-552).
T2 construct: also called mNT5E
T2 sequence: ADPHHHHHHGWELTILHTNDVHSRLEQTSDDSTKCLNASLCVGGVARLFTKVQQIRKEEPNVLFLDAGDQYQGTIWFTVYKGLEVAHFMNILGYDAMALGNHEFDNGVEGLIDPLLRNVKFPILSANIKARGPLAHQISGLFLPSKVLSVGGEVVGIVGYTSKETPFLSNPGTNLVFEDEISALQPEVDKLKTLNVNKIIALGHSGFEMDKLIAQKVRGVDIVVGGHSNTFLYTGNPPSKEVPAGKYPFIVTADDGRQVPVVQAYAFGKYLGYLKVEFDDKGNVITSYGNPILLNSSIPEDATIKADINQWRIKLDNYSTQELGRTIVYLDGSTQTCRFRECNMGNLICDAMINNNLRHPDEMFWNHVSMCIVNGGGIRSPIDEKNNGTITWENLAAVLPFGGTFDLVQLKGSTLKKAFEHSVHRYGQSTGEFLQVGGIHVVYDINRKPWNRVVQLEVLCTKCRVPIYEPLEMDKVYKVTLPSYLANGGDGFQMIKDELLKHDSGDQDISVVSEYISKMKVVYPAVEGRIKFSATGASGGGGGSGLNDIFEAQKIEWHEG
Briefly: ELISA, biotinylated NT5E on neutravidin plate, 1 mM ATP; ELISA, recombinant mNT5E, with ATP (EC50ATP). As for the experimental part:
(§1) (B) Protein ELISA: Protein-based multipoint ELISA was performed to estimate the affinity of the generated Fabs and IgGs to NT5E. The binding of the Fabs and IgGs to the closed form of NT5E were determined in ELISA buffer (HBST) supplemented with 10 μM zinc chloride and 1 mM ATP while the binding of the same to open form of NT5E were determined in ELISA buffer (HBST) without any cofactors. A fixed concentration of the immobilized target (50 nM) on ELISA plate was incubated with 3-fold serial dilutions of the purified Fabs and IgGs starting from 3 μM and 1 μM respectively for 15 min. The plates were washed and were subsequently incubated with a secondary HRP-conjugated anti-protein L monoclonal antibody (#32420, ThermoFisher, 1:6000 dilution). As with phage ELISA, the plates were again washed, developed with TMB substrate and quenched with 1.0 M HCl, and absorbance (Abs450) was determined. To determine the affinity (EC50), the data were fitted with a non-linear, 4-parameter logistic curve in OriginLab.
(In general: An ELISA detects its analyte on a solid surface through an enzyme-linked reagent.)

For experiment [3], the target named is T3, Full-length human NT5E (recombinant, in-house) (human, UniProt P21589 27-549).
T3 construct: also called hNT5E; hNT5EWT
T3 sequence: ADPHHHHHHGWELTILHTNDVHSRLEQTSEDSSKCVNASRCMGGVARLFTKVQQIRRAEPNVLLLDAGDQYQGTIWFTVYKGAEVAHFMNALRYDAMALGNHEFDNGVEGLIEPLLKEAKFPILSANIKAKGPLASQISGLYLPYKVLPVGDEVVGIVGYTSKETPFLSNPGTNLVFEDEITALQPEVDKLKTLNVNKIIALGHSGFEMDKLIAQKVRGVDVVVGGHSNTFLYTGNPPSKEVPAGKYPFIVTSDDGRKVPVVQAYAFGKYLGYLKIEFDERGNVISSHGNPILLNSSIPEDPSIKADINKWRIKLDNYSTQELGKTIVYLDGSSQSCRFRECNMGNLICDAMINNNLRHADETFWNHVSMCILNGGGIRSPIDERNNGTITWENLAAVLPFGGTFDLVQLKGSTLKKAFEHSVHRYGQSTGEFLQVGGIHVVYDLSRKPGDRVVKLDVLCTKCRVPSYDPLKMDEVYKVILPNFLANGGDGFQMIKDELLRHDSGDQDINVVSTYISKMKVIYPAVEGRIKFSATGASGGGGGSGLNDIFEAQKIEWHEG
Briefly: ELISA, biotinylated NT5E on neutravidin plate, 1 mM ATP. As for the experimental part: as §1

B1: 1789 Fab (Fab, V domains shown)
VH: EVQLVESGGGLVQPGGSLRLSCAASGFNVSYSSIHWVRQAPGKGLEWVASISSSSGYTYYADSVKGRFTISADTSKNTAYLQMNSLRAEDTAVYYCARNYWGWYPFYYFAFDYWGQGTLVTV
VL: DIQMTQSPSSLSASVGDRVTITCRASQSVSSAVAWYQQKPGKAPKLLIYSASSLYSGVPSRFSGSRSGTDFTLTISSLQPEDFATYYCQQGWDYPITFGQGTKVEIKR
Turning to B1, the values for the EC50 in experiment [1], in experiment [2] and in experiment [3] were 52 nM, 132 nM and 37 nM, respectively.

B2: 1789 IgG (antibody, V domains shown)
VH: EVQLVESGGGLVQPGGSLRLSCAASGFNVSYSSIHWVRQAPGKGLEWVASISSSSGYTYYADSVKGRFTISADTSKNTAYLQMNSLRAEDTAVYYCARNYWGWYPFYYFAFDYWGQGTLVTVSS
VL: B1 VL
Consider B2, for which the 50% effective concentration (EC50) (in general, the concentration at which the effect is half-maximal) in experiment [3] is 0.86 nM.

Source of the values: US20240199757A1 (UNIVERSITY OF CHICAGO, published 2024).
